Consider one molecule from patent US20090181444A1, “MODIFIED CARBOHYDRATE PROCESSING ENZYME” (priority 2002, published 2009).

What all share (format): biochemical
Data set [1] is described as follows: Substrate specificity compared across 4-methylumbelliferyl-β-D-glycosides. The method, then:
(§1) Parameters were determined by the method of initial rates. Activity was measured in time course assays of the hydrolysis of 4-methylumbelliferyl-β-D-glycosides (β-D-gluco, β-D-galacto, β-D-fuco, β-D-manno, β-D-xylo, β-D-glucurono) at 5-15 concentrations (0.001-1.5 mM) incubated at 80° C. in 50 mM sodium phosphate buffer, pH 6.5. Reactions were terminated at 2, 5, 10, 15 min by the addition of 100 μl of ice cold 1M NazCO3, pH 10 and analyzed (Labsystems Fluoroscan Ascent plate reader, […]). KM and kcat were derived by fitting the initial rates to hyperbolic Michaelis-Menten curves using GraFit 4 (Erithacus Software Ltd, Staines, UK).
(§2) Determination of the Michaelis-Menten parameters for the WT and mutant enzymes was performed at pH 6.5 at 80° C. for a broad range of representative, fluorophore-containing 4-methylumbelliferyl glycoside substrates, which allowed activities to be determined with a high degree of sensitivity (Table). Under these optimized assay conditions, the glucoside (Glc), galactoside (Gal) and fucoside (Fuc) substrates were hydrolysed well by SSβG-WT, but the xyloside (Xyl) substrate was hydrolysed relatively poorly (approx. 3% of turnover as determined by kcat compared with β-D-glucoside). […] In all cases the absolute D-stereospecificity and β-stereoselectivity of SSβG was maintained and no activity was detected towards L- or α-glycoside substrates.

Data set [2] can be described thus: Hydrolysis of 4-methylumbelliferyl-β-D-fucoside, initial rates. Particulars: 4-MUFuc, 80° C., pH 6.5. The method, then:
as §1, §2

Data set [3] can be described thus: Hydrolysis of 4-methylumbelliferyl-β-D-glucoside, initial rates. To be noted: 4-MUGlc, 80° C., pH 6.5. As to the method:
as §1, §2

A short description of data set [4]: Hydrolysis of 4-methylumbelliferyl-β-D-mannoside, initial rates. Particulars: 80° C., pH 6.5. The method, then: as §1, §2
Data set [5] is described as follows: Kinetic assay with p-nitrophenyl β-D-galactopyranoside, absorbance at 405 nm. To be noted: pNPGal. The method, then:
The kinetic activity of SsδG was assessed using ultra-violet/visible spectroscopy. Cleavage of the glycosidic bond of the nitrophenyl sugar analogue releases a chromophore (Scheme 18), either p-nitrophenol or o-nitrophenol.
The absorbance of these chromophores at 405 nm was continuously measured at regular time intervals, and the Beer-Lambert Law used to calculate the chromophore concentration at each of these time intervals.
In order to use this equation the extinction coefficient, ∈, of both p-nitrophenol and o-nitrophenol were calculated. Enzyme kinetic parameters were assessed using the initial rates method. The gradient of a plot of chromophore concentration against time gave the initial rate of reaction at a series of substrate concentrations (0.05-10 mM). Kinetic parameters were calculated by regression analysis of the kinetic data on the Michaelis-Menten Model (Fersht, A., Enzyme Structure and Mechanism, W.H. Freeman and Company, New York (1985)). The initial rate of reaction was measured. This model is valid when [substrate]>>[enzyme], which are initial rate conditions.
KM and νmax were calculated from non-linear Michaelis-Menten and linear Lineweaver-Burk plots. From these values, kcat and kcat/KM were calculated and compared.
KM=νmax/2, it is the concentration of substrate at which half the active sites are filled. Higher KM values correspond to weaker binding and lower KM values correspond to stronger binding kcat, the turnover number is the number of substrate molecules which are converted to product when the enzyme is saturated with substrate and ν (rate) is maximised. Given both of these considerations, binding and rate, kcat/KM is typically as a measure of the overall relative activity of the enzyme. To allow comparison of the activity of the enzymes, ln({kcat/KM}mutant/{kcat/KM}WT) was calculated for each enzyme-substrate combination, to give overall activity relative to WT.
Substrate solutions (concentration 10 mM in 50 mM pH 6.5 phosphate buffer) were prepared. Kinetic assays were conducted in a 96-well flat bottom microtitre plate. Eight substrate concentrations were chosen for the assay from the range 0.05 mM to 10 mM (prepared from 10 mM stock solution), based on previous experimental experience of the kinetics of each enzyme (default range 0.05 mM to 2.00 mM)*. The enzyme stock solution (˜1 mgmL^−1) was diluted between 16- and 80-fold depending on the kinetic parameters determined*. The enzyme solution (496 µL) was dispensed into a 1.5 mL sealed Eppendorf tube. Into eight further Eppendorf tubes a portion of each substrate solution (650 μL) was dispensed. The tubes were incubated in a Techni Dri Block at 45° C. Simultaneously a 96-well flat bottom microtitre plate was incubated at 45° C. in a plate reader. […] The plate containing the enzyme and substrate solutions was then incubated in the plate reader at 45° C. to allow equilibration. […] Release of p-nitrophenol/o-nitropbenol was measured by absorbance at […], with an automix of 3 s before the first read and Is between every subsequent read. The run time chosen was between 6 min and 10 min*, and readings were taken at intervals of between 6 s and 10 s*.
A graph of concentration of the released chromophore (either pNP or oNP) against time was drawn for each concentration using Microsoft Excel. […] These gradients were entered into Grafit, which calculated KM and νmax from the Michelis-Menten and Lineweaver-Burk plots. From these kcat and kcat/KM could be calculated. […]

Data set [6] can be described thus: Hydrolysis of 4-methylumbelliferyl-β-D-glucuronide, initial rates. To be noted: 80° C., pH 6.5. As to the method: as §1, §2

B1: WT: Wild type β-glycosidase from Sulfolobus solfataricus (SEQ ID NO: 2), recombinant with N-terminal His6-tag (protein, listed as Sulfolobus solfataricus)
chain: MYSFPNSFRFGWSQAGFQSEMGTPGSEDPNTDWYKWVHDPENMAAGLVSGDLPENGPGYWGNYKTFHDNAQKMGLKIARLNVEWSRIFPNPLPRPQNFDESKQDVTEVEINENELKRLDEYANKDALNHYREIFKDLKSRGLYFILNMYHWPLPLWLHDPIRVRRGDFTGPSGWLSTRTVYEFARFSAYIAWKFDDLVDEYSTMNEPNVVGGLGYVGVKSGFPPGYLSFELSRRHMYNIIQAHARAYDGIKSVSKKPVGIIYANSSFQPLTDKDMEAVEMAENDNRWWFFDAIIRGEITRGNEKIVRDDLKGRLDWIGVNYYTRTVVKRTEKGYVSLGGYGHGCERNSVSLAGLPTSDFGWEFFPEGLYDVLTKYWNRYHLYMYVTENGIADDADYQRPYYLVSHVYQVHRAINSGADVRGYLHWSLADNYEWASGFSMRFGLLKVDYNTKRLYWRPSALVYREIATNGAITDEIEHLNSVPPVKPLRH
modifications: N-terminal His6 tag
Usually Km stands for the substrate concentration at which the rate is half of its maximum. The kcat is the maximal rate divided by the concentration of active sites. Turning to B1, the “specificity range of kcat/KM for Glc:Gal:Xyl:Man” value in data set [1] is on record as 100 fold. In addition, the Km in data set [2] amounted to 11 ± 2 µM; in data set [3], 46 ± 17 µM; in data set [4] (4-MUMan) it was 36 ± 9 µM; in data set [5] (45° C., pH 6.5 phosphate buffer, averaged over 3 runs, except * 2 runs, read-out: KM), 459 µM; in data set [5] (read-out: average KM), 459 µM; in data set [6] (4-MUGlcA, read-out: Km), 1300 ± 400 µM. Besides, the turnover number (kcat) is 80 ± 2 s⁻¹ in data set [2]; 140 ± 20 s⁻¹ in data set [3]; 1.8 ± 0.2 s⁻¹ in data set [4] (4-MUMan); 5.07 s⁻¹ in data set [5] (45° C., pH 6.5 phosphate buffer, averaged over 3 runs, except * 2 runs); 0.81 ± 0.18 s⁻¹ in data set [6] (4-MUGlcA). For the same molecule, the “β-D-mannoside activity, turnover relative to β-D-glucoside” value in data set [4] is given as “approx. 1%”. For the same molecule, the “β-D-glucuronide activity, turnover relative to β-D-glucoside” value in data set [6] is about 0.5%.
